Molecular target: T1, ^15N-labeled human eIF4E (human, UniProt P06730 1-217)
T1 construct: human eukaryotic translation initiation factor eIF4E, in pET-15b; Uniformly ^15N-labeled; also called cap-free eIF4E; source: overexpressed and purified as described in Volpon et al. (2016)
Test: NMR titration; ^1H–^15N HSQC of ~40 µM ^15N-labeled cap-free eIF4E, unlabeled LRP10A added to ratio 1:4; 20°C, 50 mM sodium phosphate pH 7.3, 100 mM NaCl, 1 mM DTT, 7% D2O
Conditions: both partners purified

T1 sequence (P06730 whole entry): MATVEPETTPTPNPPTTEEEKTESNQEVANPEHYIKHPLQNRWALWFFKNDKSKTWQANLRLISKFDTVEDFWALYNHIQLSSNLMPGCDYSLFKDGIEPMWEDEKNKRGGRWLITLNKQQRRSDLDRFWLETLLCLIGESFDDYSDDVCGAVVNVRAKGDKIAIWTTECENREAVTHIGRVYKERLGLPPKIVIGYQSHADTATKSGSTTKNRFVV

B1: synthetic peptide LRP10A (N-Ac-EGFPIRPHYFWPLLVGRRKEK-NH2) (peptide)
peptide: Ac-EGFPIRPHYFWPLLVGRRKEK-NH2
notes: human LRPPRC, residues 433-453 (helix 10A); source: synthetic peptide, bought: Biomatic Corporation
- binding result: binds
